Data: patent US8586031B2, “Method of reusing rinse water from disinfecting packages with peracid and catalase” (Ecolab USA Inc., priority 2008, dated 2013)

Assay: Decomposition of hydrogen peroxide by catalase in about 20,000 ppm acetic acid and 500-800 ppm hydrogen peroxide at 60° C., thiosulfate titration
Assay type: biochemical
Description: Example 1 compared the ability to various catalase enzymes at 100 ppm concentration to decompose hydrogen peroxide. For this example, an aliquot of a stock solution of catalase was added to 1000 ml of a solution containing about 20,000 ppm acetic acid and 500-800 ppm of hydrogen peroxide at 60° C. The catalase addition was done at a rate that produced an enzyme concentration of 100 ppm in the 1000 ml solution The concentration of the hydrogen peroxide was measured at time zero and at 5, 10, and 15 minutes. The concentration of hydrogen peroxide was measured via titration of a 10 ml aliquot of solution including 1-2 ml of […], 1-2 ml concentrated sulfuric acid, 4-5 drops of an oxygen catalyst (saturated solution of Ammonium Molybdate) and a few drops of a starch solution. The titrant was 0.1 N Sodium thio sulfate. The solution was titrated to a colorless endpoint and the peroxide concentration was calculated via the following calculation:
Example 2 compared the ability to various catalase enzymes at 20 ppm concentration to decompose hydrogen peroxide. For this example, 20 ppm of catalase enzyme was diluted in 20,000 ppm acetic acid and 500-800 ppm of hydrogen peroxide at 60° C. The concentration of the hydrogen peroxide was measured at time zero and at 5, 10, and 15 minutes in the same manner as outlined in example 1.

B1: Bovine Catalase: crystaline bovine liver catalase, Sigma Aldrich (protein, UniProt P00432 2-527, looked up)
Catalase: ADNRDPASDQMKHWKEQRAAQKPDVLTTGGGNPVGDKLNSLTVGPRGPLLVQDVVFTDEMAHFDRERIPERVVHAKGAGAFGYFEVTHDITRYSKAKVFEHIGKRTPIAVRFSTVAGESGSADTVRDPRGFAVKFYTEDGNWDLVGNNTPIFFIRDALLFPSFIHSQKRNPQTHLKDPDMVWDFWSLRPESLHQVSFLFSDRGIPDGHRHMNGYGSHTFKLVNANGEAVYCKFHYKTDQGIKNLSVEDAARLAHEDPDYGLRDLFNAIATGNYPSWTLYIQVMTFSEAEIFPFNPFDLTKVWPHGDYPLIPVGKLVLNRNPVNYFAEVEQLAFDPSNMPPGIEPSPDKMLQGRLFAYPDTHRHRLGPNYLQIPVNCPYRARVANYQRDGPMCMMDNQGGAPNYYPNSFSAPEHQPSALEHRTHFSGDVQRFNSANDDNVTQVRTFYLKVLNEEQRKRLCENIAGHLKDAQLFIQKKAVKNFSDVHPEYGSRIQALLDKYNEEKPKNAVHTYVQHGSHLSAREKANL
decrease of the concentration of hydrogen peroxide (20 ppm catalase): did not measurably decrease | Hydrogen Peroxide Concentration (20 ppm catalase, 0 minutes): 600 ppm | Hydrogen Peroxide Concentration (20 ppm catalase, 5 minutes): 600 ppm | Hydrogen Peroxide Concentration (20 ppm catalase, 10 minutes): 600 ppm | Hydrogen Peroxide Concentration (20 ppm catalase, 15 minutes): 600 ppm | decreased the concentration of hydrogen peroxide by (100 ppm catalase, 0 to 15 minutes): 28.9 ppm | Hydrogen Peroxide Concentration (100 ppm catalase, 0 minutes): 581.4 ppm | Hydrogen Peroxide Concentration (100 ppm catalase, 5 minutes): 564.4 ppm | Hydrogen Peroxide Concentration (100 ppm catalase, 10 minutes): 561 ppm | Hydrogen Peroxide Concentration (100 ppm catalase, 15 minutes): 552.5 ppm
